These results are taken from patent publication US20210261648A1 (published 2021).

In test [1] the target is T1, FcγRIIb extracellular domain with C-terminal His tag (human, UniProt P31994 43-217).
T1 construct: extracellular domain; For crystallography it was expressed with kifunensine and trimmed with Endo F1; also called FcgRIIb; FcγRIIb extracellular region; not shown: His tag attached to the C terminus
T1 sequence (looked up): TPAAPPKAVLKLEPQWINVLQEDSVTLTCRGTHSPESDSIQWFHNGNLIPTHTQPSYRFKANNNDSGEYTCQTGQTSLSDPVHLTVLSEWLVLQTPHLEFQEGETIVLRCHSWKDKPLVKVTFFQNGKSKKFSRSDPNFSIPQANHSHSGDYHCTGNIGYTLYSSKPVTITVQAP
The test is described as follows: SPR binding amounts, FcgRIIb divided by FcgRIIaR. A general note: SPR reads the build-up and loss of mass on a sensor chip optically.

Test [2] addresses T1, FcγRIIb extracellular domain with …. Description: SPR binding amount, relative to GpH7-AP001/GpH7-BF648/GpL16-k0.
Test [3] deals with T2, FcγRIIa type R extracellular domain with C-terminal His tag (human, UniProt P12318 34-217).
T2 chain: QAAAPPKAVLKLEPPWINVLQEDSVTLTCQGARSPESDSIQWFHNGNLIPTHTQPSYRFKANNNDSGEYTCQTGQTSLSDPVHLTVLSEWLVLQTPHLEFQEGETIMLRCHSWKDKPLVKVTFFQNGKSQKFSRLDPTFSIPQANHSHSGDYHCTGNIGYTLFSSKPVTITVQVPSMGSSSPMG
Described as above.

B1: GpH7-G1d/GpL16-k0 (antibody, human IgG1, kappa)
heavy: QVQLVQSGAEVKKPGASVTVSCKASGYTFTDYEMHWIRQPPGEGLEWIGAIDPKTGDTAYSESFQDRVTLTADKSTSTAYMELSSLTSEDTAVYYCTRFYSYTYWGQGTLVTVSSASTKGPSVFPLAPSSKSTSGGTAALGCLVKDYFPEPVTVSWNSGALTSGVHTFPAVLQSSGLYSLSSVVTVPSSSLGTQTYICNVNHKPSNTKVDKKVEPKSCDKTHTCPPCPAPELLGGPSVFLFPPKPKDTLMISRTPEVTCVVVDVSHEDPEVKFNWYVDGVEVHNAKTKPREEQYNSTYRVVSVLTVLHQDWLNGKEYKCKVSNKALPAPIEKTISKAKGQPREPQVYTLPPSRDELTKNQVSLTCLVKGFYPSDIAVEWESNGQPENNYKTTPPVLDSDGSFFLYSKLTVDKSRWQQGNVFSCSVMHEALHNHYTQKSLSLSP
light: DIVMTQSPLSLPVTPGEPASISCQASESLVHSNRNTYLHWYLQKPGQSPQLLIYKVSNRFSGVPDRFSGSGSGTDFTLKISRVEAEDVGVYYCSQNTHVPPTFGQGTKVEIERTVAAPSVFIFPPSDEQLKSGTASVVCLLNNFYPREAKVQWKVDNALQSGNSQESVTEQDSKDSTYSLSSTLTLSKADYEKHKVYACEVTHQGLSSPVTKSFNRGEC
notes: Anti-glypican 3 IgG1 without C-terminal Gly and Lys
Take B1: the “amount binding to FcgRIIb/amount binding to FcgRIIaR” value in test [1] came to 0.5. The “binding amount to FcgRIIb when that of GpH7-AP001/GpH7-BF648 is defined as 100” value in test [2] came to 65. Further, in test [3], the “binding amount to FcgRIIaR when that of GpH7-AP001/GpH7-BF648 is defined as 100” value turned out to be 515.

B2: GpH7-AP001/GpH7-BF648/GpL16-k0 (antibody, human IgG1, kappa, name in EU numbering)
heavy 1: QVQLVQSGAEVKKPGASVTVSCKASGYTFTDYEMHWIRQPPGEGLEWIGAIDPKTGDTAYSESFQDRVTLTADKSTSTAYMELSSLTSEDTAVYYCTRFYSYTYWGQGTLVTVSSASTKGPSVFPLAPSSKSTSGGTAALGCLVKDYFPEPVTVSWNSGALTSGVHTFPAVLQSSGLYSLSSVVTVPSSSLGTQTYICNVNHKPSNTKVDKKVEPKSCDKTHTCPPCPAPELLGGDSVFLFPPKPKDTLMISRTPEVTCVVVDVSHEDPEVKFNWYVDGVEVHNAKTKPREEQYNSTYRVVSVLTVLHQDWLNGKEYKCKVSNKALPAPIEKTISKAKGQPREPQVYTLPPSRKELTKNQVSLTCLVKGFYPSDIAVEWESNGQPENNYKTTPPVLDSDGSFFLYSKLTVDKSRWQQGNVFSCSVMHEALHNRYTQKSLSLSP
heavy 2: not shown
light: DIVMTQSPLSLPVTPGEPASISCQASESLVHSNRNTYLHWYLQKPGQSPQLLIYKVSNRFSGVPDRFSGSGSGTDFTLKISRVEAEDVGVYYCSQNTHVPPTFGQGTKVEIERTVAAPSVFIFPPSDEQLKSGTASVVCLLNNFYPREAKVQWKVDNALQSGNSQESVTEQDSKDSTYSLSSTLTLSKADYEKHKVYACEVTHQGLSSPVTKSFNRGEC
notes: Heterodimerized anti-glypican 3 IgG1; P238D in both chains
For the molecule B2, in test [1], the “amount binding to FcgRIIb/amount binding to FcgRIIaR” value was found to be 4. Moreover, the “binding amount to FcgRIIb when that of GpH7-AP001/GpH7-BF648 is defined as 100” value in test [2] stood at 100. For the same molecule, the “binding amount to FcgRIIaR when that of GpH7-AP001/GpH7-BF648 is defined as 100” value in test [3] came out at 100.

B3: GpH7-A5/GpH7-BF648/GpL16-k0 (antibody, human IgG1, kappa)
heavy 1: not shown
heavy 2: not shown
light: DIVMTQSPLSLPVTPGEPASISCQASESLVHSNRNTYLHWYLQKPGQSPQLLIYKVSNRFSGVPDRFSGSGSGTDFTLKISRVEAEDVGVYYCSQNTHVPPTFGQGTKVEIERTVAAPSVFIFPPSDEQLKSGTASVVCLLNNFYPREAKVQWKVDNALQSGNSQESVTEQDSKDSTYSLSSTLTLSKADYEKHKVYACEVTHQGLSSPVTKSFNRGEC
notes: Heterodimerized anti-glypican 3 IgG1; P238D in the GpH7-B3 chain only
On to B3, for which, in test [1], the “amount binding to FcgRIIb/amount binding to FcgRIIaR” value amounted to 0.8. The “binding amount to FcgRIIb when that of GpH7-AP001/GpH7-BF648 is defined as 100” value in test [2] was 131. For the same molecule, the “binding amount to FcgRIIaR when that of GpH7-AP001/GpH7-BF648 is defined as 100” value in test [3] came out at 677.

B4: GpH7-AP001/GpH7-BP057/GpL16-k0 (antibody, human IgG1, kappa)
heavy 1: QVQLVQSGAEVKKPGASVTVSCKASGYTFTDYEMHWIRQPPGEGLEWIGAIDPKTGDTAYSESFQDRVTLTADKSTSTAYMELSSLTSEDTAVYYCTRFYSYTYWGQGTLVTVSSASTKGPSVFPLAPSSKSTSGGTAALGCLVKDYFPEPVTVSWNSGALTSGVHTFPAVLQSSGLYSLSSVVTVPSSSLGTQTYICNVNHKPSNTKVDKKVEPKSCDKTHTCPPCPAPELLGGDSVFLFPPKPKDTLMISRTPEVTCVVVDVSHEDPEVKFNWYVDGVEVHNAKTKPREEQYNSTYRVVSVLTVLHQDWLNGKEYKCKVSNKALPAPIEKTISKAKGQPREPQVYTLPPSRKELTKNQVSLTCLVKGFYPSDIAVEWESNGQPENNYKTTPPVLDSDGSFFLYSKLTVDKSRWQQGNVFSCSVMHEALHNRYTQKSLSLSP
heavy 2: not shown
light: DIVMTQSPLSLPVTPGEPASISCQASESLVHSNRNTYLHWYLQKPGQSPQLLIYKVSNRFSGVPDRFSGSGSGTDFTLKISRVEAEDVGVYYCSQNTHVPPTFGQGTKVEIERTVAAPSVFIFPPSDEQLKSGTASVVCLLNNFYPREAKVQWKVDNALQSGNSQESVTEQDSKDSTYSLSSTLTLSKADYEKHKVYACEVTHQGLSSPVTKSFNRGEC
notes: Heterodimerized anti-glypican 3 IgG1; copies: 1 + 1 + 2
As for B4, the “amount binding to FcgRIIb/amount binding to FcgRIIaR” value in test [1] came to 0.9. Further, the “binding amount to FcgRIIb when that of GpH7-AP001/GpH7-BF648 is defined as 100” value in test [2] stood at 121. Further, in test [3], the “binding amount to FcgRIIaR when that of GpH7-AP001/GpH7-BF648 is defined as 100” value amounted to 561.

B5: GpH7-A5/GpH7-B3/GpL16-k0 (antibody, human IgG1, kappa)
heavy 1: not shown
heavy 2: not shown
light: DIVMTQSPLSLPVTPGEPASISCQASESLVHSNRNTYLHWYLQKPGQSPQLLIYKVSNRFSGVPDRFSGSGSGTDFTLKISRVEAEDVGVYYCSQNTHVPPTFGQGTKVEIERTVAAPSVFIFPPSDEQLKSGTASVVCLLNNFYPREAKVQWKVDNALQSGNSQESVTEQDSKDSTYSLSSTLTLSKADYEKHKVYACEVTHQGLSSPVTKSFNRGEC
notes: Heterodimerized anti-glypican 3 IgG1 (A5: D356K/H435R; B3: K439E); also called A5/B3
As for B5, in test [1], the “amount binding to FcgRIIb/amount binding to FcgRIIaR” value is 0.5. Also, in test [2], the “binding amount to FcgRIIb when that of GpH7-AP001/GpH7-BF648 is defined as 100” value worked out at 77. In test [3], the “binding amount to FcgRIIaR when that of GpH7-AP001/GpH7-BF648 is defined as 100” value was 570.

B6: GpH7-AP001/GpH7-BP044/GpL16-k0 (antibody, human IgG1, kappa)
heavy 1: QVQLVQSGAEVKKPGASVTVSCKASGYTFTDYEMHWIRQPPGEGLEWIGAIDPKTGDTAYSESFQDRVTLTADKSTSTAYMELSSLTSEDTAVYYCTRFYSYTYWGQGTLVTVSSASTKGPSVFPLAPSSKSTSGGTAALGCLVKDYFPEPVTVSWNSGALTSGVHTFPAVLQSSGLYSLSSVVTVPSSSLGTQTYICNVNHKPSNTKVDKKVEPKSCDKTHTCPPCPAPELLGGDSVFLFPPKPKDTLMISRTPEVTCVVVDVSHEDPEVKFNWYVDGVEVHNAKTKPREEQYNSTYRVVSVLTVLHQDWLNGKEYKCKVSNKALPAPIEKTISKAKGQPREPQVYTLPPSRKELTKNQVSLTCLVKGFYPSDIAVEWESNGQPENNYKTTPPVLDSDGSFFLYSKLTVDKSRWQQGNVFSCSVMHEALHNRYTQKSLSLSP
heavy 2: not shown
light: DIVMTQSPLSLPVTPGEPASISCQASESLVHSNRNTYLHWYLQKPGQSPQLLIYKVSNRFSGVPDRFSGSGSGTDFTLKISRVEAEDVGVYYCSQNTHVPPTFGQGTKVEIERTVAAPSVFIFPPSDEQLKSGTASVVCLLNNFYPREAKVQWKVDNALQSGNSQESVTEQDSKDSTYSLSSTLTLSKADYEKHKVYACEVTHQGLSSPVTKSFNRGEC
notes: as for B4
In the case of B6, in test [1], the “amount binding to FcgRIIb/amount binding to FcgRIIaR” value was found to be 0.8. For the same molecule, in test [2], the “binding amount to FcgRIIb when that of GpH7-AP001/GpH7-BF648 is defined as 100” value came to 127. The “binding amount to FcgRIIaR when that of GpH7-AP001/GpH7-BF648 is defined as 100” value in test [3] worked out at 609.

B7: GpH7-AP001/GpH7-BP032/GpL16-k0 (antibody, human IgG1, kappa)
heavy 1: QVQLVQSGAEVKKPGASVTVSCKASGYTFTDYEMHWIRQPPGEGLEWIGAIDPKTGDTAYSESFQDRVTLTADKSTSTAYMELSSLTSEDTAVYYCTRFYSYTYWGQGTLVTVSSASTKGPSVFPLAPSSKSTSGGTAALGCLVKDYFPEPVTVSWNSGALTSGVHTFPAVLQSSGLYSLSSVVTVPSSSLGTQTYICNVNHKPSNTKVDKKVEPKSCDKTHTCPPCPAPELLGGDSVFLFPPKPKDTLMISRTPEVTCVVVDVSHEDPEVKFNWYVDGVEVHNAKTKPREEQYNSTYRVVSVLTVLHQDWLNGKEYKCKVSNKALPAPIEKTISKAKGQPREPQVYTLPPSRKELTKNQVSLTCLVKGFYPSDIAVEWESNGQPENNYKTTPPVLDSDGSFFLYSKLTVDKSRWQQGNVFSCSVMHEALHNRYTQKSLSLSP
heavy 2: not shown
light: DIVMTQSPLSLPVTPGEPASISCQASESLVHSNRNTYLHWYLQKPGQSPQLLIYKVSNRFSGVPDRFSGSGSGTDFTLKISRVEAEDVGVYYCSQNTHVPPTFGQGTKVEIERTVAAPSVFIFPPSDEQLKSGTASVVCLLNNFYPREAKVQWKVDNALQSGNSQESVTEQDSKDSTYSLSSTLTLSKADYEKHKVYACEVTHQGLSSPVTKSFNRGEC
notes: as for B4
Turning to B7, the “amount binding to FcgRIIb/amount binding to FcgRIIaR” value in test [1] worked out at 1. For the same molecule, the “binding amount to FcgRIIb when that of GpH7-AP001/GpH7-BF648 is defined as 100” value in test [2] is 129. For the same molecule, the “binding amount to FcgRIIaR when that of GpH7-AP001/GpH7-BF648 is defined as 100” value in test [3] was determined as 538.

B8: GpH7-AP001/GpH7-BP061/GpL16-k0 (antibody, human IgG1, kappa, name in EU numbering)
heavy 1: QVQLVQSGAEVKKPGASVTVSCKASGYTFTDYEMHWIRQPPGEGLEWIGAIDPKTGDTAYSESFQDRVTLTADKSTSTAYMELSSLTSEDTAVYYCTRFYSYTYWGQGTLVTVSSASTKGPSVFPLAPSSKSTSGGTAALGCLVKDYFPEPVTVSWNSGALTSGVHTFPAVLQSSGLYSLSSVVTVPSSSLGTQTYICNVNHKPSNTKVDKKVEPKSCDKTHTCPPCPAPELLGGDSVFLFPPKPKDTLMISRTPEVTCVVVDVSHEDPEVKFNWYVDGVEVHNAKTKPREEQYNSTYRVVSVLTVLHQDWLNGKEYKCKVSNKALPAPIEKTISKAKGQPREPQVYTLPPSRKELTKNQVSLTCLVKGFYPSDIAVEWESNGQPENNYKTTPPVLDSDGSFFLYSKLTVDKSRWQQGNVFSCSVMHEALHNRYTQKSLSLSP
heavy 2: not shown
light: DIVMTQSPLSLPVTPGEPASISCQASESLVHSNRNTYLHWYLQKPGQSPQLLIYKVSNRFSGVPDRFSGSGSGTDFTLKISRVEAEDVGVYYCSQNTHVPPTFGQGTKVEIERTVAAPSVFIFPPSDEQLKSGTASVVCLLNNFYPREAKVQWKVDNALQSGNSQESVTEQDSKDSTYSLSSTLTLSKADYEKHKVYACEVTHQGLSSPVTKSFNRGEC
notes: Heterodimerized anti-glypican 3 IgG1
As to B8, in test [1], the “amount binding to FcgRIIb/amount binding to FcgRIIaR” value came to 2.9. The “binding amount to FcgRIIb when that of GpH7-AP001/GpH7-BF648 is defined as 100” value in test [2] was determined as 80.
